This series deals with the molecule itself. The series can be described thus: small-angle X-ray scattering (SAXS); 50 mM sodium phosphate buffer pH 7.0, 36 (legend: 35) and 8 µM protein, 25 °C; gyration radius compared with that calculated for the hexamer of PDB 1KNX.

B1: histidine phosphocarrier protein (HPr) kinase/phosphorylase of Bacillus subtilis (enzyme, UniProt O34483 1-310, looked up)
chain: MAKVRTKDVMEQFNLELISGEEGINRPITMSDLSRPGIEIAGYFTYYPRERVQLLGKTELSFFEQLPEEEKKQRMDSLCTDVTPAIILSRDMPIPQELIDASEKNGVPVLRSPLKTTRLSSRLTNFLESRLAPTTAIHGVLVDIYGVGVLITGKSGVGKSETALELVKRGHRLVADDCVEIRQEDQDTLVGNAPELIEHLLEIRGLGIINVMTLFGAGAVRSNKRITIVMNLELWEQGKQYDRLGLEEETMKIIDTEITKLTIPVRPGRNLAVIIEVAAMNFRLKRMGLNAAEQFTNKLADVIEDGEQEE
notes: HPr kinase/phosphorylase (HPrK/P) of Bacillus subtilis; theoretical molecular weight 36.6 kDa including the His-tag; Vector was a gift from Dr. A. Galinier; Oligomeric state depends on the buffer: monomer in pure water (DLS), mainly hexamer in 50 mM sodium phosphate pH 7.0; also called bsHPrK/P; HPrK/P; source: E. coli BL21 (DE3), purified (Ni-resin, Superdex 200 gel filtration), dialysed against …
By stoichiometry N is commonly meant the number of molecules, sites or subunits per partner or assembly. Turning to B1, the “stoichiometry N” value was 6.

The values above are taken from article PMC8004850, “The Histidine Phosphocarrier Kinase/Phosphorylase from Bacillus Subtilis Is an Oligomer in Solution with a High Thermal Stability” (International Journal of Molecular Sciences, 2021).
